The results in this text go back to the nanobody polyreactivity screen of Harvey et al. (2022).

The data set is described as follows: yeast display, Sf9 membrane polyspecificity reagent, FACS + sequencing; frameworks hold sequencing errors. The method in brief: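 Nanobodies from a synthetic yeast display library (Saccharomyces cerevisiae BJ5465), induced 36–48 hours with galactose, were stained 1 hour at 4 °C with 10% biotinylated, detergent-solubilized Sf9 membrane reagent, enriched on streptavidin microbeads, then FACS-sorted. Anti-HA (expression) and streptavidin (reagent binding) fluorescence set low and high (top ~1%) gates. Polyreactivity labels come from the gate of origin. Genes were colony-PCR amplified, MiSeq 2 × 250 sequenced and filtered by CDR length.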
Turning to “QVQLVESGGGLVQAGGSLRLSCAASGSIFYTYVMGWYRPAPGKERELVAAISASGVRTYYADSVKGRFTISRDNAKYTFYLQMNSLKPEYTAVYFCAADRQRADYYWGQGTQVTVSS”, the “polyreactivity (PSR sort gate)” value is given as “high polyreactivity”.

For the sequence “QVQLVESGGGLVQAGGSLRLSCAASGSIFYTYVMGWYRPAPGKERELVAVISWSSTSTYYADSVKGRFTISRDNAKKTVYLQMNSLKPEDTAVYYCAAGVHRYRPGHGYDDGGYYWGQGTQVTVSS”, the “polyreactivity (PSR sort gate)” value is listed as “low polyreactivity”.

Regarding “QVQLVESGGGLVQAGGSLRLSCAASGSIFYTYVMGWYRQAPGKERELVAAITWSGGSTYYADSVKGRFTISRDNAKNTVYLQMNSLKPEDTAVYYCAAVRGYRSSKYDYWGQGTQVTVSS”, the “polyreactivity (PSR sort gate)” value is on record as “high polyreactivity”.

Regarding “QVQLVESGGGLVQAGGSLRLSCAASGSIFYVNAMGWSRQAPGKERELVAAITSGVSTNYADSVKGSFTISRDNAKNTVYLQMNSLKREDTAVYYSAADYTYKQLHWVIEDYWGQGTQVTVSS”, the “polyreactivity (PSR sort gate)” value is recorded as “low polyreactivity”.

Turning to “QVQLVESGGGLVQAGGSLRLSCAASGSIFYVNAMGWYRQAPGKERELVASITASGGTTYYADSVKGRFTISRDNAKNTVYLQMNSLKPEDTAVYYCAATFIQVVVNVQLYDYDYWGQGTQVTVSS”, the “polyreactivity (PSR sort gate)” value is “low polyreactivity”.

In the case of “QVQLVESGGGLVQAGGSLRLSCAASGSIFYVYAMGWYRQAPGKEREFVASIRTSGSSTYADSVKGRFTISRDNAKNTVYLQMNSLKPEDTAVYYCAAGSITVFWKRTGYRWRGYDYWGQGTQVTVSS”, the “polyreactivity (PSR sort gate)” value is recorded as “low polyreactivity”.

For the sequence “QVQLVESGGGLVQAGGSLRLSCAASGSIFYVYAMGWYRQAPGKERELVAAITSSGTTNYADSVKGRFTISRDNAKNTVYLQMNSLKPEDTAVYYCAADPDSGQVPFDYWGQGTQVTVSS”, the “polyreactivity (PSR sort gate)” value was “low polyreactivity”.

Consider “QVQLVESGGGLVQAGGSLRLSCAASGSIFYVYAMGWYRQAPGKERELVATISSSAGSTYYADSVKGRFTISRDNAKNTVYLQMNSLKPEDTAVYYCAAKVRYSLRKYYYWGQGTQVTVSS”, for which the “polyreactivity (PSR sort gate)” value was “high polyreactivity”.

For “QVQLVESGGGLVQAGGSLRLSCAASGSIFYWNAMGWYRQAPGKERELVAAISSSGSSTYYADSVKGRFTISRDNAKNTVYLQMNSLKPEDTAVYYCAADNYNSGGTRHMYYWGQGTQVTVSS”, the “polyreactivity (PSR sort gate)” value is “high polyreactivity”.

For the sequence “QVQLVESGGGLVQAGGSLRLSCAASGSIFYWNAMGWYRQAPGKERELVATITITTSTNYADSVKGRFTISRDNAKNTVYLQMNSLKPEDTAVYYCNAGAPYRYLDEYNYWGQGTQVTVSS”, the “polyreactivity (PSR sort gate)” value is recorded as “low polyreactivity”.

Consider “QVQLVESGGGLVQAGGSLRLSCAASGSIFYWNTMGWYRQAPGKERELVAAIRRGGNTYYADSVKGRFTISRDNAKNTVYLQMNCLKPEDTAVYYCNRDGTYVYHGGEYWGQGTQVTVSS”, for which the “polyreactivity (PSR sort gate)” value is “low polyreactivity”.

For the sequence “QVQLVESGGGLVQAGGSLRLSCAASGSIFYWYAMGWYRQAPGKEREFIADIDWSGGSTYYADSVKGRFTISRDNAKNTVYLQMNSLKPEDTAVYYCAAEARIDIGLYYLDSYYWGQGTQVTVSS”, the “polyreactivity (PSR sort gate)” value is given as “high polyreactivity”.

As for “QVQLVESGGGLVQAGGSLRLSCAASGSIFYWYAMGWYRQAPGKERELVAAISSGGSTNYADSVKGRFTISRDNAKNTVYLQMNSLKPEDTAVYYCNADVPVRYGPIYFRRLDYWGQGTQVTVSS”, the “polyreactivity (PSR sort gate)” value was “low polyreactivity”.

As to “QVQLVESGGGLVQAGGSLRLSCAASGSIFYWYAMGWYRQAPGKERELVAAITSSSGRTRYADSVKGRFTISRDNAKNTVYLQMNSLKPEDTAVYYCAAGRWGSYYTPRPYGYWGQGTQVTVSS”, the “polyreactivity (PSR sort gate)” value is on record as “high polyreactivity”.

Turning to “QVQLVESGGGLVQAGGSLRLSCAASGSIFYWYAMGWYRQEPGKERELVAAIDISDDTYYADSVKGRYTISRDNAKNTVYLLMNRLKPEDTAVYYCATDEWYLFEYPFYYWGQGSQVTVSS”, the “polyreactivity (PSR sort gate)” value is “high polyreactivity”.

For the sequence “QVQLVESGGGLVQAGGSLRLSCAASGSIFYWYTMGWYRQAPGKERELVAAISSIDGNTYYADSVKGRFTISRDNAKNTVYLQMNSLKPEDTAVYYCAAAYYNTDYYYWGQGTQVTVSS”, the “polyreactivity (PSR sort gate)” value was “low polyreactivity”.

As to “QVQLVESGGGLVQAGGSLRLSCAASGSIFYYAMGWYRQAPGKERELVADISTGGSTHYADSVKGRFTISRDNAKNTVYLQMYSLKPEDTAVYYCAKEAWRYRLNFRYNYWVQGTQVTVSS”, the “polyreactivity (PSR sort gate)” value is given as “low polyreactivity”.

For the sequence “QVQLVESGGGLVQAGGSLRLSCAASGSIFYYNALGWYRHAPGKERELVASISNGGSTDYADSVKGRFTISRDNAKNTVYLQMNSVKPEDTAVYYCNAKQSYRSDYDYWGQGTQVTVSS”, the “polyreactivity (PSR sort gate)” value is listed as “low polyreactivity”.

“QVQLVESGGGLVQAGGSLRLSCAASGSIFYYNAMGWYIQAPGKERELVAAIRSTGSTNYADSVKGRFTISRDNAKNTVYLQMNSLKPEDTAVYYCNADYIFWLTLFDYWGQGTQVTVSS”: the “polyreactivity (PSR sort gate)” value was “low polyreactivity”.

For the sequence “QVQLVESGGGLVQAGGSLRLSCAASGSIFYYNAMGWYRQAPGKEREFVAAIRTRGDSTYYADSVKGRFTISRDNAKNTVYLQMNSLKPEDTAVYYCAARHYGGDGNKYYYWGHGTQVTVSS”, the “polyreactivity (PSR sort gate)” value is on record as “high polyreactivity”.

As to “QVQLVESGGGLVQAGGSLRLSCAASGSIFYYNAMGWYRQAPGKEREFVAAITISGGDTYYADSVKGRFTISRDNAKNTVYLQMNSLKPEDTAVYYCAAESYRGYDYWGQGTQVTVSS”, the “polyreactivity (PSR sort gate)” value is on record as “high polyreactivity”.

As for “QVQLVESGGGLVQAGGSLRLSCAASGSIFYYNAMGWYRQAPGKERELVAAINSNGGSTYYADSVKGRFTISRDNAKNSVYFQMNSLKPEDTAVYYCNARYPGRTQGRYYYWGHGTQVTVSS”, the “polyreactivity (PSR sort gate)” value is “low polyreactivity”.

In the case of “QVQLVESGGGLVQAGGSLRLSCAASGSIFYYNAMGWYRQAPGKERELVAAISSSGGSTYYADSVKGRFTISRDNAKNTVYLQMNSLKPEDTAVYYCAAKLRHWAHHTKYDYWGQGTQVTVSS”, the “polyreactivity (PSR sort gate)” value was “low polyreactivity”.

Regarding “QVQLVESGGGLVQAGGSLRLSCAASGSIFYYNAMGWYRQAPGKERELVAAISWGDGITYYADSVKGRFTISRDNAKNTVYLQMNSLKPEDTAVYYCAVDYYYLPYEYWGQGTQVTVSS”, the “polyreactivity (PSR sort gate)” value is given as “high polyreactivity”.

In the case of “QVQLVESGGGLVQAGGSLRLSCAASGSIFYYNAMGWYRQAPGKERELVAGISYTGGSTYYADSVKGRFTISRDNAKNTVYLQMNSLKPEDTAVYYCAAVRQYYFRYKINTSGYQYYYWGQGTQVTVSS”, the “polyreactivity (PSR sort gate)” value is reported as “high polyreactivity”.

For the sequence “QVQLVESGGGLVQAGGSLRLSCAASGSIFYYNPMGWYRQAPWKERELVAAITGSGGSTYYADSVKGRFTISRDNAKNTVYLQMNSLKPEDTAVYYCAADYSLYGWWFRNDYWGQGTQVTVSS”, the “polyreactivity (PSR sort gate)” value was “low polyreactivity”.

Consider “QVQLVESGGGLVQAGGSLRLSCAASGSIFYYNTMGWYRQAPGKEREFVATITFSGSSTYYADSVKGRFTFSRDNAKNTVYLQMNSLKPEDTAVYYCAVTLEDYTYGYWGQGTQVTVSS”, for which the “polyreactivity (PSR sort gate)” value is recorded as “low polyreactivity”.

Consider “QVQLVESGGGLVQAGGSLRLSCAASGSIFYYNTMGWYRQAPGKERELVAAITSTGRTNYADSVKGRFTISRDNAKNTVYLQINSLKPVDTAVYYCAKRRFGDGDYWGQGTQVTVSS”, for which the “polyreactivity (PSR sort gate)” value is recorded as “low polyreactivity”.

In the case of “QVQLVESGGGLVQAGGSLRLSCAASGSIFYYNVMGWYRQAPGKERELVAAISQSGVRTYYADSVKGRFTISRDNAKNTVYLQMNSLKPEDTAVYYCAAKARRLYASSYDYWGQGTQVTVSS”, the “polyreactivity (PSR sort gate)” value is recorded as “high polyreactivity”.

Turning to “QVQLVESGGGLVQAGGSLRLSCAASGSIFYYNYMGWYRQAPGKERELVATITNGGGTNYADSVKGRFTISRDNAKNTVYLQMNSLKPEDTAVYYCARDVWSPDYLYDYWGQGTQVTVSS”, the “polyreactivity (PSR sort gate)” value is listed as “low polyreactivity”.

Regarding “QVQLVESGGGLVQAGGSLRLSCAASGSIFYYYAMGWYRQAPGKERELVAAIDSGGSTYYADSVKGRFTISRDNAKNTVYLQMNSLKPEDTAVYYCAADTYWFVYYGYDYWGLGTQVTVSS”, the “polyreactivity (PSR sort gate)” value is reported as “low polyreactivity”.

As to “QVQLVESGGGLVQAGGSLRLSCAASGSIFYYYAMGWYRQAPGKERELVAAISTGGGSTYYADSVKGRFTISRDNAKNTVYLQINSLKPEDTAVYYCAAPWGYYSSFTDDYWGHGTQVTVSS”, the “polyreactivity (PSR sort gate)” value is “low polyreactivity”.

Take “QVQLVESGGGLVQAGGSLRLSCAASGSIFYYYAMGWYRQAPGKERELVAAITSGGRTKYADSVKGRFTISRDNAKNTVYLQMNSLKPEDTAVYYCATRAIWAYSTGYDYWGQGTQVTVSS”: the “polyreactivity (PSR sort gate)” value is “high polyreactivity”.

Regarding “QVQLVESGGGLVQAGGSLRLSCAASGSIFYYYAMGWYRQAPGKERELVAAITSGGSTYYADSVKGRFTISRDNAKNTVYLQMNSLKPEDTAVYYCAAVFYAAYLRYVWYSYDYWGQGTQVTVSS”, the “polyreactivity (PSR sort gate)” value is recorded as “low polyreactivity”.

As for “QVQLVESGGGLVQAGGSLRLSCAASGSIFYYYAMGWYRQAPGKERELVAAITSRAGDTYYADSVKGRFTISRDNAKNTVYLQMNSLKPEDTAVYYCAADFPAYYDYYYWGQGTQVTVSS”, the “polyreactivity (PSR sort gate)” value is given as “low polyreactivity”.

For “QVQLVESGGGLVQAGGSLRLSCAASGSIFYYYAMGWYRQAPGKERELVASITSGGSTYYADSVKGRFTISRDNAKNTVYLQMNILKPEDTAVYYCAADVYRTWYWWFDYWGQGTQVTVSS”, the “polyreactivity (PSR sort gate)” value was “high polyreactivity”.

For “QVQLVESGGGLVQAGGSLRLSCAASGSIFYYYSMGWYRQAPGKERELVAAMSTGGGSTYYADSVKGRFTISRDNAKNTVYLQMNSLKPEDTSVYYCAAPWGYYSSFTDDYWGQGTQVTVSS”, the “polyreactivity (PSR sort gate)” value was “low polyreactivity”.

For the sequence “QVQLVESGGGLVQAGGSLRLSCAASGSIHFEYMGWYRQAPGKERELVAAITIRDGGTYYADSVKGRFTISRDNAKNTVYLQMNSLKPEDTAVYYCNADFSGGWRYDYWGQGTQVTVSS”, the “polyreactivity (PSR sort gate)” value is listed as “low polyreactivity”.

“QVQLVESGGGLVQAGGSLRLSCAASGSIIAAYAMGWYRQAPGKERELVAAIRWNGGSTYYADSVKGRFTISRDNAKNTVYLQMISLKPEDTAVFYCAADYIYYPVYEFGYWGQGTQVTVSS”: the “polyreactivity (PSR sort gate)” value is recorded as “low polyreactivity”.

“QVQLVESGGGLVQAGGSLRLSCAASGSIIAGNVMGWYRQAPGKERELVAAISRRGGRTYYADSVKGRFTISRDNAKNTVYLQMNSLKPEDTAVYYCAARRDPVLGKSDFWGQGTQVTVSS”: the “polyreactivity (PSR sort gate)” value is listed as “high polyreactivity”.

In the case of “QVQLVESGGGLVQAGGSLRLSCAASGSIIDRYAMGWYRQAPGKERELVAAISRSGGSTYYADSVKGRFTISRDNAKNTVYLQMKSLKPEDTAFYYCAAGGDSGDDWGQGTQVTVSS”, the “polyreactivity (PSR sort gate)” value is “low polyreactivity”.
